Experimental findings from paper PMC7096766 are described below.

The data set has as its target human alpha-thrombin (Homo sapiens, UniProt P00734;P00734 328-363;364-622). The experiment in a line: SEC mobility shift.

B1: apt29-rssp (tba29-rssp) (structured_DNA)
DNA: TTTTTTAGTCCGTGGTAGGGCAGGTTGGGGTGACT
modifications: 5'-C6-NH2, DBCO; conjugated by azide-DBCO cycloaddition to spider silk protein eADF4(C16)
In the case of B1, the binding result is on record as “binds”.

B2: apt15-rssp (tba15-rssp) (structured_DNA)
DNA: TTTTTTGGTTGGTGTGGTTGG
modifications: 5'-C6-NH2, DBCO; conjugated by azide-DBCO cycloaddition to spider silk protein eADF4(C16)
For the molecule B2, the binding result is listed as “binds”.
